Results taken from patent US20250313621A1 (NXERA PHARMA UK, published 2025).

What was measured:
[1] = target: T1, Wildtype human PAR2 expressed on cells (human, UniProt P55085 37-397); test: KinExA, apparent KD; IgG titrated with BacMam infected HEK-293F cells expressing wild-type full-length human PAR2
T1 construct: also called huPAR2; WT FL-huPAR2
T1 sequence: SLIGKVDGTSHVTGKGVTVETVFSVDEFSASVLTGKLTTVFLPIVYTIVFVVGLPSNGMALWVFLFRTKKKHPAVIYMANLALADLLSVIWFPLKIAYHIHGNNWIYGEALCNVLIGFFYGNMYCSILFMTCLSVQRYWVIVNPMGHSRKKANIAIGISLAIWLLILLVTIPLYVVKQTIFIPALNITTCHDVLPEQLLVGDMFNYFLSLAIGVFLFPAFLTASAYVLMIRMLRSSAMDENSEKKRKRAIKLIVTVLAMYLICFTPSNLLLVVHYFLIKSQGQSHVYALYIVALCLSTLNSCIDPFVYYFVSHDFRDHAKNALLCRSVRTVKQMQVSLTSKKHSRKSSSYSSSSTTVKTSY
Method: (§1) For the determination of apparent KD using “native” PAR2 (i.e. PAR2 expressed at the cell surface) KinExA methodology was applied to evaluate a subset of lead clones, namely Y022870 and Y02283. […] The cells were titrated in incubation buffer (D-PBS from Gibco, 0.5% (w/v) BSA, 0.02% (v/v) Sodium azide). The experiment consisted of two titrations with a low and a high fixed IgG concentration. In both titration experiments (stoichiometry- and affinity-controlled conditions), the maximum amount of cells had to contain a high enough effective ligand concentration to completely saturate the IgG. The mixtures of IgG and cells were incubated at room temperature overnight under very gentle agitation to allow for equilibrium formation. Subsequently, the formed cell-antibody complex was removed by centrifugation. The free IgG amounts of the supernatants were determined with goat anti-human F(ab′)₂ fragment specific antibody (Jackson ImmunoResearch, #109-005-097) coated on PMMA (Polymethylmethacrylat) beads and fluorescence detection with anti-human F(ab′)₂ fragment specific Alexa Fluor 647 antibody (Jackson ImmunoResearch, #109-605-097). […] The recorded titration curves were analyzed with KinExA Pro software 4.1.11 using the n-curve analyse tool by applying the “Equilibrium, whole cell” model. […] Values are in line with SPR determined using PAR2 nanodiscs (210 and 140 pM, respectively).

[2] = target: T1, Wildtype human PAR2 expressed on cells; test: KinExA, whole cell equilibrium, HEK-293F cells expressing WT full-length human PAR2 titrated against two fixed IgG concentrations, apparent KD; sheet also prints Expression Level: 7.951e+006 receptors/cell, Error: 2.06 %
Method: as §1

[3] = target: T2, Cynomolgus PAR2 on BacMam-infected HEK293 cells (cynomolgus); test: flow cytometry on HEK293F-cynoPAR2 (3.0E+06 cells/mL), S/BG
T2 construct: whole, on cells; also called cyno PAR-2; Cyno PAR2

[4] = target: T1, Wildtype human PAR2 expressed on cells; test: KinExA, whole cell equilibrium, HEK-293F cells expressing WT full-length human PAR2 titrated against two fixed IgG concentrations, apparent KD; sheet also prints Expression Level: 2.518e+006 receptors/cell, Error: 2.56 %
Method: as §1

Row | Binder | Kd [1] | Kd [2] | EC50 (read off the curve) [3] | Kd [4]
1 | Y022870 (antibody, human IgG1, lambda, V domains shown, also called Y22870) VH: EVQLLESGGGLVQPGGSLRLSCAASGFSFSRYAITWVRQAPGKGLEWVSTISALGLETYYAESVRGRFTISRDNSKNTLYLQMNSLRAEDTAVYYCARGFHYTHSGKRYYYPFDIWGQGTLVTVSS VL: QSALTQPASVSGSPGQSITISCTGTSSDVGSYNLVSWYQQHPGKAPKLMIYEGSKRPSGVSNRFSGSKSGNTASLTISGLQAEDEADYYCSQYATFIAFAVFGGGTKLTVLG | ~370 pM | 373 pM |  | 
2 | Y022877 (antibody, human IgG1, lambda, V domains shown, also called Y22877) VH: EVQLLESGGGLVQPGGSLRLSCAASGFTFSRYAMTWVRQAPGKGLEWVSTISGLGQEAYYAGSVKGRFTISRDNSKNTLYLQMNSLRAEDTAVYYCARGFHYTHSGKRYYYPFDIWGQGTLVTVSS VL: QSALTQPASVSGSPGQSITISCTGTSSDVGSYNLVSWYQQHPGKAPKLMIYEGSKRPSGVSNRFSGSKSGNTASLTISGLQAEDEADYYCSQYATFIAFAVFGGGTKLTVLG |  |  | ~3000 pM | 
3 | Y022883 (antibody, human IgG1, lambda, V domains shown, also called Y22883; Y02283) VH: EVQLLESGGGLVQPGGSLRLSCAASGFSFTRYAISWVRQAPGKGLEWVSVISGHGSEANYAESVKGRFTISRDNSKNTLYLQMNSLRAEDTAVYYCARGFHYTHSGKRYYYPFDIWGQGTLVTVSS VL: QSALTQPASVSGSPGQSITISCTGTSSDVGSYNLVSWYQQHPGKAPKLMIYEGSKRPSGVSNRFSGSKSGNTASLTISGLQAEDEADYYCSQYATFIAFAVFGGGTKLTVLG | ~260 pM |  | ~2000 pM | 259 pM
